Target: human complement factor H (CFH) (human) (UniProt P08603)
Assay: ELISA; […] (20 mM HEPES, 50 mM NaCl, pH 7.4) […]

Sequence of human complement factor H (CFH) (human) (P08603 19-1231): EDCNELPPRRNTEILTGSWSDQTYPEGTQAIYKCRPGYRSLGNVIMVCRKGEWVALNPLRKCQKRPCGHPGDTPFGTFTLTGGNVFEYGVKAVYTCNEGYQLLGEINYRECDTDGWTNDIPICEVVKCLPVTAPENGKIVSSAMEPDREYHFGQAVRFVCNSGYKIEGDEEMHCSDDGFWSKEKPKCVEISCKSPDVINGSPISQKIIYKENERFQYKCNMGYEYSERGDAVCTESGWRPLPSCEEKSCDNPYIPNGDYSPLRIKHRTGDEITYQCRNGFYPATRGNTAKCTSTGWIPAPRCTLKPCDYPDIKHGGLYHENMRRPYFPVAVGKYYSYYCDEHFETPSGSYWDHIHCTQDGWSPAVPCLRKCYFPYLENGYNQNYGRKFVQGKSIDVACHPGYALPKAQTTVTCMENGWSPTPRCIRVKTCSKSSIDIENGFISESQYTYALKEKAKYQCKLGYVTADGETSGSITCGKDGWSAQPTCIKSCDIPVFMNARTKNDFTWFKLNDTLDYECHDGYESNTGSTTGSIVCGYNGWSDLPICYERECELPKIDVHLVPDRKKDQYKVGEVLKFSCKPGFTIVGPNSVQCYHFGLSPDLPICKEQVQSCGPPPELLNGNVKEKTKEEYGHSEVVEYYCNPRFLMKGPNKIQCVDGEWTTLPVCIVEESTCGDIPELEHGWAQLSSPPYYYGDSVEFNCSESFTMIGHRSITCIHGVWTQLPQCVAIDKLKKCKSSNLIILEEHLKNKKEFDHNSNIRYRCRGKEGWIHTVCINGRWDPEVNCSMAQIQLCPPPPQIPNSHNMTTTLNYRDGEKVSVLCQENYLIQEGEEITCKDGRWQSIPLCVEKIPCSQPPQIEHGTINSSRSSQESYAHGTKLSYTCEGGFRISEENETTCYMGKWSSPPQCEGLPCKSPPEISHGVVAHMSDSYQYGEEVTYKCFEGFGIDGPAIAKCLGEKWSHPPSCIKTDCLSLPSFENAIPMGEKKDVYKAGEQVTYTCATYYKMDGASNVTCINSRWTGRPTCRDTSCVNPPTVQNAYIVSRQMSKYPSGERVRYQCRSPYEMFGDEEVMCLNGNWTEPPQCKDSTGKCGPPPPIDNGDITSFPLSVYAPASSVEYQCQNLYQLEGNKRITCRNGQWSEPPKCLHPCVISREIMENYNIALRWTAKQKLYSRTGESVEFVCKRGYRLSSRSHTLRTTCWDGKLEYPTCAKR

For “Recombinant BclA protein (rBclA), His-tagged (from UniProt Q81JD7 1-382) (natural protein)”, the Kd was 910 nM.
